Paper PMC10893412, “Genetic and Biochemical Characterization of AXC-2 from Achromobacter ruhlandii” (Pathogens, 2024)

Columns and labels:
Experiment in all cases: purified protein
Details in all cases: 25 mM sodium phosphate pH 7.5, 25 °C
[1] = tested on: CC1=C(C(=O)O)N2C(=O)[C@@H](NC(=O)[C@H](N)c3ccccc3)[C@H]2SC1
[2] = tested on: C[C@@H](O)[C@H]1C(=O)N2C(C(=O)O)=C(SCCN=CN)C[C@H]12; type: biochemical, Achromobacter ruhlandii
Excerpt: (§1) UV/Vis spectrophotometric hydrolysis, steady state on AXC-2

[3] = tested on: C[C@@H](O)[C@H]1C(=O)N2C(C(=O)O)=C(S[C@@H]3CN[C@H](C(=O)N(C)C)C3)[C@H](C)[C@H]12; type: biochemical, Achromobacter ruhlandii
Excerpt: as §1

[4] = tested on: CO/N=C(\C(=O)N[C@@H]1C(=O)N2C(C(=O)[O-])=C(C[N+]3(C)CCCC3)CS[C@H]12)c1csc(N)n1; type: biochemical, Achromobacter ruhlandii
Excerpt: as §1

[5] = tested on: CO/N=C(\C(=O)N[C@@H]1C(=O)N2C(C(=O)O)=C(CSc3nc(=O)c(=O)[nH]n3C)CS[C@H]12)c1csc(N)n1; type: biochemical, Achromobacter ruhlandii
Excerpt: as §1

[6] = tested on: CC1(C)S[C@@H]2[C@H](NC(=O)Cc3ccccc3)C(=O)N2[C@H]1C(=O)O; type: biochemical, Achromobacter ruhlandii
Excerpt: as §1

[7] = tested on: O=C(Cc1cccs1)N[C@@H]1C(=O)N2C(C(=O)O)=C(/C=C/c3ccc([N+](=O)[O-])cc3[N+](=O)[O-])CS[C@H]12; type: biochemical, Achromobacter ruhlandii
Excerpt: as §1

[8] = tested on: CC1(C)S[C@@H]2[C@H](NC(=O)[C@H](N)c3ccccc3)C(=O)N2[C@H]1C(=O)O; type: biochemical, Achromobacter ruhlandii
Excerpt: as §1

Q: What does the source list for AXC-2 (Achromobacter ruhlandii)?
A: Km [1]: 74 ± 14 µM; kcat [1]: 16 s⁻¹; kcat/Km [1]: 220000 M⁻¹ s⁻¹; Km [2]: 6.3 ± 0.8 µM; kcat [2]: 0.0364 ± 0.0009 s⁻¹; kcat/Km [2]: 5800 ± 900 M⁻¹ s⁻¹; Km [3]: 8 ± 1 µM; kcat [3]: 0.051 ± 0.002 s⁻¹; kcat/Km [3]: 7000 ± 1000 M⁻¹ s⁻¹; Km [4]: 872 ± 254 µM; kcat [4]: 0.29 ± 0.07 s⁻¹; kcat/Km [4]: 300 ± 100 M⁻¹ s⁻¹; Km [5]: 59 ± 6 µM; kcat [5]: 5.5 ± 0.3 s⁻¹; kcat/Km [5]: 90000 ± 10000 M⁻¹ s⁻¹; Km [6]: 1297 ± 409 µM; kcat [6]: 125 ± 28 s⁻¹; kcat/Km [6]: 100000 ± 50000 M⁻¹ s⁻¹; Km [7]: 202 ± 24 µM; kcat [7]: 40 ± 3 s⁻¹; kcat/Km [7]: 200000 ± 40000 M⁻¹ s⁻¹; Km [8]: 344 ± 14 µM; kcat [8]: 62 ± 5 s⁻¹; kcat/Km [8]: 180000 ± 20000 M⁻¹ s⁻¹
